Laboratory results reported in patent US20250122303A1 (HUMMINGBIRD BIOSCIENCE PTE, published 2025).

How the values were obtained:
[1] = biological target: T1, recombinant biotinylated human HER3 protein (human, UniProt P21860 20-643, limits assumed, biotinylated, site not stated); experiment: plate ELISA dimerisation assay; human EGFR-His coated, constant HER3-biotin and NRG, antibody varied; blocked partner EGFR-His
T1 construct: also called HER3-biotin
Protocol: Plate-based ELISA dimerisation assays were performed according to standard protocols. Plate was coated with 1 μg/ml human EGFR-His. […] Plates were then washed and incubated for 1 hour with secondary anti-avidin HRP antibody. […] The absorbance was read at 450 nm.

His-tagged human HER3 [2] = biological target: T2, His-tagged human HER3 (human, UniProt P21860 20-643); experiment: BLI (Octet QK384), antibody captured on AHC sensors, His-tagged human HER3 in solution, without NRG1
T2 construct: Antigen of the BLI experiments and of the HER2-Fc dimerisation ELISA; also called HER3 His; not shown: His tag
Protocol: Binding of anti-HER3 antibodies to human HER3 was evaluated by BLI. Briefly, anti-Human IgG Capture (AHC) sensors (ForteBio) were loaded with anti-HER3 IgG antibodies (25 nM). Kinetic measurements were performed in absence or presence of NRG1. NRG1 was used at 1:1 molar ratio with HER3 wherein the complex was allowed to form at RT for 2 h. […] All measurements were performed at 25° C. with agitation at 1000 rpm. Sensorgrams were referenced for buffer effects and then analyzed using the Octet QK384-software (ForteBio). Kinetic responses were globally fitted using a one-site binding model to obtain values for association (Kₒₙ), dissociation (Koff) rate constants and the equilibrium dissociation constant (KD).

[3] = biological target: T3, His-tagged FcγRIIIa (V158) (human, UniProt P08637 17-208); experiment: Bio-Layer Interferometry (determined as described in Example 7)
T3 construct: not shown: His tag

FcRn = biological target: T4, FcRn (human, UniProt P55899); experiment: as above
T4 construct: recombinant; also called human FcRn; gene FCGRT (so in the source)

FcgRIIA (R167) = biological target: T5, FcgRIIA (R167) (human, UniProt P12318); experiment: as above
T5 construct: recombinant; also called CD32A; hFcγRIIa167R
T5 sequence (receptor, looked up): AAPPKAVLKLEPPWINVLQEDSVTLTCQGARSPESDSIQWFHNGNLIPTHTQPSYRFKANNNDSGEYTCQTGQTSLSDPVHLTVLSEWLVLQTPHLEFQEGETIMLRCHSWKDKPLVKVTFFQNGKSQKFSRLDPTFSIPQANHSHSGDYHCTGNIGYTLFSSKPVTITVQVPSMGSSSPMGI

[4] = biological target: T6, human HER3 expressed on cells (HEK293 HER3 O/E cells) (human, UniProt P21860 20-1342); experiment: flow cytometry on HEK293T HER3 O/E cells, 10 ug antibody as printed, FITC-conjugated anti-Fc secondary
T6 construct: Also used here for HER3 on U2OS cells of the PathHunter kit and on cancer cell lines; also called HEK293 cells transfected with vector encoding human HER3; human HER3-expressing cells
Protocol: The cells were washed with buffer (PBS with 2 mM EDTA and 0.5% BSA) and resuspended in FITC-conjugated anti-FC antibody (Invitrogen, USA) at 10 μg/ml for 20 min at 4° C. Cells were washed again and resuspended in 200 μL of FACS flow buffer (PBS with 5 mM EDTA) for flow cytometric analysis using MACSQuant 10 (Miltenyi Biotec, Germany). Unstained WT and transfected HEK293 cells were included in the analysis as negative controls. After acquisition, all raw data were analyzed using Flowlogic software. Cells were gated using forward and side scatter profile percentage of positive cells was determined for native and overexpressing cell populations.

[5] = biological target: T6, human HER3 expressed on cells (HEK293 …); experiment: flow cytometry, HEK293 cells overexpressing human HER3 (293_OE HER3), 20 ug/ml antibody, FITC anti-Fc secondary; same antibody on 293 cells: 2.78; unstained 293: 0.14
human HER3 polypeptide = biological target: T7, human HER3 polypeptide (human, UniProt P21860 20-643); experiment: ELISA, plate coated with human HER3, antibody titrated, absorbance 450 nm, x axis Log([Ab]) (ug/ml)
T7 construct: Recombinant antigen of the ELISAs; also called human HER3 (Sino Biological Inc.); human antigen HER3

moFcRn = biological target: T8, moFcRn (mouse, UniProt Q61559); experiment: Bio-Layer Interferometry (determined as described in Example 7)
T8 construct: recombinant; also called mouse FcRn; gene FCGRT (so in the source)
T8 sequence (receptor, looked up): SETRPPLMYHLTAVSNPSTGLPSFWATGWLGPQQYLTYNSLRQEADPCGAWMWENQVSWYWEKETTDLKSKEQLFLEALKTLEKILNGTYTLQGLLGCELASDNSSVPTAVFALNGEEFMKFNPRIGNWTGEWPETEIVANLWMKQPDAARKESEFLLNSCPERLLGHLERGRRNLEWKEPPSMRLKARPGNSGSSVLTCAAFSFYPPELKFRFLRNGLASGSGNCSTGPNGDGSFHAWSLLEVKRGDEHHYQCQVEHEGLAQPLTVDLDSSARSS
T8 sequence (looked up): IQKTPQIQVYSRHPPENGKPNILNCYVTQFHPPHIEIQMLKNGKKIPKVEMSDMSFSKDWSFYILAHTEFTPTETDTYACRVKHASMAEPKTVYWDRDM

moFcgRIV = biological target: T9, moFcgRIV; experiment: as above
T9 construct: also called CD16-2; mFcγRIV
T9 chain: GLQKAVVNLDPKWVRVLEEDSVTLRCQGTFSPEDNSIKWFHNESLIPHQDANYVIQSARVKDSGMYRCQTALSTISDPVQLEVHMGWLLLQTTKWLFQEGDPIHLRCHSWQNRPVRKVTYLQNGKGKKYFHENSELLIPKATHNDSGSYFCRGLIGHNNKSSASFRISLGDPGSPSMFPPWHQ

His-tagged human HER3 [6] = biological target: T2, His-tagged human HER3; experiment: plate ELISA dimerisation assay; HER2-Fc coated, constant HER3 His and NRG, antibody varied; blocked partner HER2-Fc
Protocol: Plate-based ELISA dimerisation assays were carried out according to standard protocols. Plates were coated with 1 μg/ml HER2-Fc protein. […] Plates were then washed and incubated for 1 hour with secondary anti-HIS HRP antibody. […] The absorbance was read at 450 nm.

IC50 [1]: 4.78 nM
Kd (His-tagged human HER3 [2]): < 0.001 nM
koff (His-tagged human HER3 [2]): < 1e-07 s⁻¹
kon (His-tagged human HER3 [2]): 199000 M⁻¹ s⁻¹
Kd [3]: 986 nM
Kd (FcRn): 47.6 nM
Kd (FcgRIIA (R167)): 976 nM
% Parent (HER3 positive) [4]: 73.3%
% Parent (HER3 positive) [5]: 44.6%
EC50 (read off the curve) (human HER3 polypeptide): ~2 ng/mL
Kd (moFcRn): 14.6 nM
Kd (moFcgRIV): 1810 nM
IC50 (His-tagged human HER3 [6]): 78.8 nM
B1: 10D1F.FcA (anti-HER3 clone 10D1_c89 IgG1) (antibody)
heavy: not shown
light: DIQMTQSPSSVSASVGDRVTITCKASQIVGSNVAWYQQKPGKAPEPLIYSASYLYSGVPSRFSGSGSGTDFTLTISSLQPEDFATYYCQQYSSHPLTFGQGTKLEIKRTVAAPSVFIFPPSDEQLKSGTASVVCLLNNFYPREAKVQWKVDNALQSGNSQESVTEQDSKDSTYSLSSTLTLSKADYEKHKVYACEVTHQGLSSPVTKSFNRGEC
notes: also called 10D1F.A; HMBD-001
